Positions count from the first letter of the chain named. Names may count otherwise. “And” between values parts separate entries of the source, which are not always exact repeats. Identical values can stand only once. Like-named read-outs stand apart in the source and are kept apart here.
Tests used:
[1] = In vitro enzyme kinetics of decarboxylases, ADP formation coupled to NADH oxidation; format: biochemical; conditions: for Km / kcat / % of WT (kcat/Km): substrate MVAP; for % of WT (kcat/Km): relative to PMDsc wild type
Protocol: A plasmid encoding a wild type mevalonate diphosphate decarboxylase from Saccharomyces cerevisiae (PMDsc) with N-terminal His-tag (pSKB3-PMDsc) is transformed into E. coli BL21 (DE3). A seed culture of BL21 (DE3) harboring pSKB3-PMDsc is prepared by inoculating a single colony and growing it overnight in Luria-Bertani (LB) medium containing kanamycin (50 μg/mL). The seed culture is diluted in Terrific Broth supplemented with 2% glycerol and 50 μg/mL kanamycin and incubated at 37° C. until the optical density of the culture at 600 nm (OD600) reached to 0.6-0.8. The cell culture is supplemented with isopropyl-β-D-thiogalactopyranoside (IPTG) to the final concentration of 0.5 mM and transferred to 18° C. for protein expression overnight. Cells are collected by centrifugation and re-suspended in 50 mM Tris-HCl (pH 7.5) buffer containing 300 mM NaCl and 10 mM imidazole. Cells are lysed by sonication and purified by HisPur Cobalt Resins (Thermo Scientific, USA). The purified PMDss is desalted in 10 mM Tris-HCl (pH 7.5) containing 50 mM NaCl, 0.5 mM dithiothreitol (DTT) and 20% glycerol, and flash-frozen in liquid nitrogen for storage at −80° C. All PIVD mutants, PMDsc, and NudB are purified as described above, except that NudB is desalted in 50 mM Tris-HCl (pH 8.0) buffer containing 0.1 mM EDTA, 1 mM DTT and 20% glycerol.
In vitro enzyme kinetics of decarboxylases are performed as described in previous studies (Barta et al., 2012 and Vannice et al., 2014). Briefly, enzymatic activity of decarboxylase is determined by a spectrophotometer assay quantifying ADP product formation, which is coupled to NADH oxidation by pyruvate kinase/lactate dehydrogenase. Assay mixtures are prepared in 50 mM HEPES-KOH (pH 7.5) containing 10 mM MgCl2, 400 μM phosphoenolpyruvate, 200 μM NADH, 4 mM ATP, and 25 U of pyruvate kinase/lactate dehydrogenase (Sigma, P0294). The reaction is initiated by addition of various concentrations of MVAP from 100 μM to 4,000 μM, and the reaction velocity is determined by monitoring OD at 340 nm in Spectramax 384plus microplate reader (Molecular Devices, USA).

E. coli BW25113 = assay: Isopentenol production in E. coli; format: cell-based, Escherichia coli; conditions: for isopentenol productivity: pathway II, through 30 hours of batch fermentation; for effect on in vivo isopentenol production: expressed in IPP-bypass pathway II in E. coli
Protocol: E. coli BW25113 harboring two plasmids is used for isopentenol production. Seed cultures of all production strains are prepared by growing single colonies in LB medium containing 100 μg/mL ampicillin and 30 μg/mL chloramphenicol overnight at 37° C. with shaking at 200 rpm. The seed cultures are diluted in EZ-Rich defined medium (Teknova, USA) containing 10 g/L glucose (1%, w/v), 100 μg/mL ampicillin and 30 μg/mL chloramphenicol. The E. coli cell cultures are incubated in rotary shakers (200 rpm) at 37° C., and 0.5 mM IPTG is added to induce protein expression at OD600 of 0.6-0.8. To provide different levels of aeration, identical volumes of the cell culture are split into two flasks for incubation at 30° C. with shaking at either 200 rpm or 30 rpm.
For isopentenol quantification, 250 μL of cell culture is combined with 250 μL of ethyl acetate containing 1-butanol (30 mg/L) as an internal standard. This mixture of ethyl acetate and cell culture is vigorously shaken for 15 min and subsequently centrifuged at 13,000 g for 2 min to separate ethyl acetate from the aqueous phase. 100 μL of the ethyl acetate layer was diluted 5-fold, and 1 μL is analyzed by Agilent GCMS equipped with Cyclosil-B column (Agilent, USA) or Thermo GCFID equipped with DB-WAX column (Agilent, USA) for quantitation of isopentenol.

[2] = In vitro decarboxylase activity toward MVA; format: biochemical
Protocol: In vitro enzyme kinetics of decarboxylases are performed as described in previous studies (Barta et al., 2012 and Vannice et al., 2014). Briefly, enzymatic activity of decarboxylase is determined by a spectrophotometer assay quantifying ADP product formation, which is coupled to NADH oxidation by pyruvate kinase/lactate dehydrogenase. Assay mixtures are prepared in 50 mM HEPES-KOH (pH 7.5) containing 10 mM MgCl2, 400 μM phosphoenolpyruvate, 200 μM NADH, 4 mM ATP, and 25 U of pyruvate kinase/lactate dehydrogenase (Sigma, P0294). […]

[3] = substrate MVAPP, cited from earlier work
[4] = In vitro enzyme kinetics of decarboxylases, ADP formation coupled to NADH oxidation; format: biochemical; conditions: in vitro assay reactions using cell lysates
[5] = In vitro hydrolysis of IPP by purified Nudix hydrolase; format: biochemical; conditions: purified enzyme with IPP; up to 16 hours
Protocol: All metabolites are analyzed by liquid chromatography mass spectrometry (LC-MS; Agilent Technologies 1200 Series HPLC system and Agilent Technologies 6210 time-of-flight mass spectrometer) on a ZIC-HILIC column (150 mm length, 2.1-mm internal diameter, and 3.5-μm particle size). Standard chemicals (IPP and IP) are purchased from Sigma-Aldrich (USA). Metabolites are eluted isocratically with a mobile phase composition of 64% (v/v) acetonitrile containing 50 mM ammonium acetate with a flow rate of 0.15 mL/min. IPP and IP from E. coli extracts or enzyme assay are quantified via […] calibration curves ranging from 781.25 nM to 200 μM.

B1: PMDsc WT: wild type mevalonate diphosphate decarboxylase from Saccharomyces cerevisiae (protein, UniProt P32377 1-396, looked up)
Diphosphomevalonate …: MTVYTASVTAPVNIATLKYWGKRDTKLNLPTNSSISVTLSQDDLRTLTSAATAPEFERDTLWLNGEPHSIDNERTQNCLRDLRQLRKEMESKDASLPTLSQWKLHIVSENNFPTAAGLASSAAGFAALVSAIAKLYQLPQSTSEISRIARKGSGSACRSLFGGYVAWEMGKAEDGHDSMAVQIADSSDWPQMKACVLVVSDIKKDVSSTQGMQLTVATSELFKERIEHVVPKRFEVMRKAIVEKDFATFAKETMMDSNSFHATCLDSFPPIFYMNDTSKRIISWCHTINQFYGETIVAYTFDAGPNAVLYYLAENESKLFAFIYKLFGSVPGWDKKFTTEQLEAFNHQFESSNFTARELDLELQKDVARVILTQVGSGPQETNESLIDAKTGLPKE
Km toward MVAP, fold higher than reported Km toward MVAPP ([1]; MVAP vs native substrate MVAPP): ~8 fold
kcat toward MVAP, fold lower than reported kcat toward MVAPP ([1]; MVAP vs native substrate MVAPP): about 35 fold
Km [1]: 990 µM
kcat [1]: 0.14 s⁻¹
% of WT (kcat/Km) [1]: 100%
isopentenol productivity (E. coli BW25113): 15.9 mg/L/h
activity on MVA [2]: too low to determine the kinetic parameters
Km ([3]; Krepkiy and Miziorko, 2004): 123 µM
kcat ([3]; literature): 5.9 s⁻¹ and 5.4 s⁻¹

B2: PMDsc T209D: PMDsc mutant, T209 mutated to negatively charged aspartate (protein)
chain: B1 Diphosphomevalonate … with T209D
Km [1]: 990 µM
kcat [1]: 0.13 s⁻¹
% of WT (kcat/Km) [1]: 98%
effect on in vivo isopentenol production (E. coli BW25113): do not significantly change the in vivo production titer

B3: S208E: PMDsc mutant, serine 208 mutated to glutamate (protein, UniProt P32377 1-396, looked up, variant S208E)
Diphosphomevalonate …: B1 Diphosphomevalonate … with S208E
product formation from MVAP [4]: do not produce detectible amount of product

B4: PMDsc K22M: PMDsc mutant, K22 mutated to neutral methionine (protein)
chain: B1 Diphosphomevalonate … with K22M
Km [1]: 2470 µM
kcat [1]: 0.09 s⁻¹
% of WT (kcat/Km) [1]: 25%
effect on in vivo isopentenol production (E. coli BW25113): do not significantly change the in vivo production titer

B5: S155E: PMDsc mutant, serine 155 mutated to glutamate (protein, UniProt P32377 1-396, looked up, variant S155E)
Diphosphomevalonate …: B1 Diphosphomevalonate … with S155E
product formation from MVAP [4]: do not produce detectible amount of product

B6: PMDsc I145F: PMDsc mutant I145F (protein)
chain: B1 Diphosphomevalonate … with I145F
Km [1]: 1360 µM
kcat [1]: 0.28 s⁻¹
% of WT (kcat/Km) [1]: 147%
% of WT (kcat/Km) ([1]; listed as I145F): 147%
effect on in vivo isopentenol production (E. coli BW25113): reduces isopentenol titer and productivity
activity on MVA [2]: do not show detectible hydrolysis activity on MVA

B7: PMDsc R74H: PMDsc mutant R74H (protein)
chain: B1 Diphosphomevalonate … with R74H
Km [1]: 770 µM
kcat [1]: 0.23 s⁻¹
% of WT (kcat/Km) [1]: 220%
% of WT (kcat/Km) ([1]; listed as R74H): 220%
isopentenol productivity (E. coli BW25113): 20.4 mg/L/h
activity on MVA [2]: do not show detectible hydrolysis activity on MVA

B8: NudF: NudF of B. subtilis, identified as a IPP hydrolase (protein, UniProt P54570 1-185, looked up)
ADP-ribose pyrophosphatase: MKSLEEKTIAKEQIFSGKVIDLYVEDVELPNGKASKREIVKHPGAVAVLAVTDEGKIIMVKQFRKPLERTIVEIPAGKLEKGEEPEYTALRELEEETGYTAKKLTKITAFYTSPGFADEIVHVFLAEELSVLEEKRELDEDEFVEVMEVTLEDALKLVESREVYDAKTAYAIQYLQLKEALQAQK
IPP hydrolysis product [5]: hydrolyze IPP to IP, but not to isopentenol

From US11660961B2, “Host cells and methods for producing isopentenol from mevalonate” (The Regents of the University of California, priority 2015, dated 2023)
